# Laboratory results taken from publication PMC4756830 (Nucleic Acids Research, 2015).
# B1: GabR from Bacillus subtilis with C-terminal His6-tag (natural protein)
# chain: MDITITLDRSEQADYIYQQIYQKLKKEILSRNLLPHSKVPSKRELAENLKVSVNSVNSAYQQLLAEGYLYAIERKGFFVEELDMFSAEEHPPFALPDDLKEIHIDQSDWISFSHMSSDTDHFPIKSWFRCEQKAASRSYRTLGDMSHPQGIYEVRAAITRLISLTRGVKCRPEQMIIGAGTQVLMQLLTELLPKEAVYAMEEPGYRRMYQLLKNAGKQVKTIMLDEKGMSIAEITRQQPDVLVTTPSHQFPSGTIMPVSRRIQLLNWAAEEPRRYIIEDDYDSEFTYDVDSIPALQSLDRFQNVIYMGTFSKSLLPGLRISYMVLPPELLRAYKQRGYDLQTCSSLTQLTLQEFIESGEYQKHIKKMKQHYKEKRERLITALEAEFSGEVTVKGANAGLHFVTEFDTRRTEQDILSHAAGLQLEIFGMSRFNLKENKRQTGRPALIIGFARLKEEDIQEGVQRLFKAVYGHKKIPVTGD
# Target: the molecule itself
# Test: SEC-MALS
protein,measurement,value
B1,stoichiometry N,2
